Experimental data published in patent US20120107364A1 (ACTGEN, published 2012).

Tests used:
Test in all cases: flow cytometry on Ba/F3 cells expressing the truncated PODXL2
[1] = molecular target: T1, PODXL2, positions 1 to 340 (human, UniProt O00592 23-372)
T1 construct: One of the 14 C-terminal truncations; Expressed on Ba/F3 cells; also called R340
T1 sequence: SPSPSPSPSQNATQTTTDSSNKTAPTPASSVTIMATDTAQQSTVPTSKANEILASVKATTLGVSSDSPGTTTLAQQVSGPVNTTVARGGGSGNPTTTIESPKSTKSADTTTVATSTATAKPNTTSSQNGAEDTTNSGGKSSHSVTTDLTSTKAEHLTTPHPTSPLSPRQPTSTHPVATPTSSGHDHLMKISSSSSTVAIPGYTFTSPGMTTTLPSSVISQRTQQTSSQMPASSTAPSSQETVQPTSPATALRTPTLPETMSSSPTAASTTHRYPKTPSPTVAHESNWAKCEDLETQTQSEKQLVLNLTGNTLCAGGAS
Protocol: (§1) To each sample of the cell suspension, 50 μl of the hybridoma culture supernatant or 2-μg/ml of the purified antibody (hereinafter, referred to as an “antibody solution”) was added, and the antibody was reacted with the cells. As an isotype control of the antibody solution, a wash buffer containing 2 μg/ml of each of mouse IgG1 (BioLegend, 400412), mouse IgG2a (BioLegend, 400224), and mouse IgG2b (BioLegend, 400324) was used. The hybridoma culture supernatant was reacted with the target cells at room temperature for 30 minutes, followed by centrifugation at 700×g for 2 minutes. Then, a culture supernatant was removed. Further, 100 μl of a wash buffer was added, followed by centrifugation at 700×g for 2 minutes again. A supernatant was removed. Then, the cells were washed.
(§2) Next, to the cell pellets after the washing, 50 μl of Goat anti-mouse IgG, F(ab′) 2-PE (PE=phycoerythrin, Beckman Coulter, IM0855) diluted 200-fold with a wash buffer was added as a secondary antibody for detection, and reacted in the dark at room temperature for 30 minutes. The reaction was followed by centrifugation at 700×g for 2 minutes. A supernatant was removed. Further, 100 μl of a wash buffer was added, followed by centrifugation at 700×g for 2 minutes again. A supernatant was removed. Then, the cells were washed. Thereafter, the cells were suspended in an appropriate amount of a wash buffer. The reactivity between the antibody and the cells was analyzed by a flow cytometer (Beckman Coulter, FC500 MPL).
(§3) Thereafter, by the same method as in Example 1 (4) (the virus packaging and thereafter), Ba/F3 cells containing the PODXL2 gene sequences of various chain lengths were prepared. Further, by the same method as in Example 4, the reactivity between the ACT36-27_{—}5D1 antibody and the Ba/F3 cells expressing the PODXL2 molecules of various chain lengths was analyzed by a flow cytometer (FIG. 10).

[2] = molecular target: T2, PODXL2, positions 1 to 330 (human, UniProt O00592 23-362)
T2 construct: One of the 14 C-terminal truncations; Expressed on Ba/F3 cells; also called R330
T2 sequence: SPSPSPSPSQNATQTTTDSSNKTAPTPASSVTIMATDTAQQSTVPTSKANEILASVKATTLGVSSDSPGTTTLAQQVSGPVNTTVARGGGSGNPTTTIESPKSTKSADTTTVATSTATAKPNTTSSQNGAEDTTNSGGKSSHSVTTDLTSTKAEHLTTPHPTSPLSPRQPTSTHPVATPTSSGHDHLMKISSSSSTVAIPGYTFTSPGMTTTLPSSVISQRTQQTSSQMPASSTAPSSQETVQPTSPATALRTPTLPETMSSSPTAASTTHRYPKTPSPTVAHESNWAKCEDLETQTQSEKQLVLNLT
Protocol: as §1, §2, §3

[3] = molecular target: T3, PODXL2, positions 1 to 300 (human, UniProt O00592 23-332)
T3 construct: Shortest of the 14 C-terminal truncations; Expressed on Ba/F3 cells; also called R300
T3 sequence: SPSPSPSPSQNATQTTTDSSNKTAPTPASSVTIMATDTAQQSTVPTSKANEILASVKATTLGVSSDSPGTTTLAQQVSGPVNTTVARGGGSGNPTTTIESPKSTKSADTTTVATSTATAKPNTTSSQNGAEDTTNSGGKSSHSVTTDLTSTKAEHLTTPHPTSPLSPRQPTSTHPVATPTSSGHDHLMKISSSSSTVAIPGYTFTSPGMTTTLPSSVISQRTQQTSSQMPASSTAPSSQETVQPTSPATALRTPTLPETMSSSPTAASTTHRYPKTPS
Protocol: as §1, §2, §3

[4] = molecular target: T4, PODXL2, positions 1 to 420 (human, UniProt O00592 23-452)
T4 construct: Encoded as positions 1-420 in pMX-SST and expressed on Ba/F3 cells; The vector-encoded part is not described; also called R420
T4 sequence: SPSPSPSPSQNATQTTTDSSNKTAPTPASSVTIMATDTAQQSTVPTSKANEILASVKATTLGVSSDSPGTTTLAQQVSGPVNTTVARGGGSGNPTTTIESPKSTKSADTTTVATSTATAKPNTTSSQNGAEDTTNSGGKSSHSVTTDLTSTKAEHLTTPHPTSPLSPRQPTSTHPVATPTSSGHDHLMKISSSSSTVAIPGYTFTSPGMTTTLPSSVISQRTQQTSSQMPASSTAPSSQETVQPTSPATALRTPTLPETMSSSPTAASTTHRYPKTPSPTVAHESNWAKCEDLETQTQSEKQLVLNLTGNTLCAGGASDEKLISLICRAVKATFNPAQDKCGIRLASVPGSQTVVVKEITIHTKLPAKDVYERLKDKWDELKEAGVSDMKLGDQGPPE
Protocol: as §1, §2, §3

[5] = molecular target: T5, PODXL2, positions 1 to 400 (human, UniProt O00592 23-432)
T5 construct: Encoded as positions 1-400 in pMX-SST and expressed on Ba/F3 cells; The vector-encoded part is not described; also called R400
T5 sequence: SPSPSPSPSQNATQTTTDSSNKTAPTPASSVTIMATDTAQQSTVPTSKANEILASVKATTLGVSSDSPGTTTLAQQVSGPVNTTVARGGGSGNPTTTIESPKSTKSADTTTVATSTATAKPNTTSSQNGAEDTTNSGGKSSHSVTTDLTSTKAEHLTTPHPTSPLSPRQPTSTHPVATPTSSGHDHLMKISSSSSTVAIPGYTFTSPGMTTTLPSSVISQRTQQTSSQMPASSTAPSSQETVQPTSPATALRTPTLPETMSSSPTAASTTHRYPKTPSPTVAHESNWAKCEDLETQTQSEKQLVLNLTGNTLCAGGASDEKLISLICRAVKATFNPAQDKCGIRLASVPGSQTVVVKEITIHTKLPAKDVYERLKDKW
Protocol: as §1, §2, §3

B1: ACT36-27-5D1 antibody (antibody, V domains shown)
VH: EVQLQQSGPELVKPGASVKMSCKASGYTFTSYVMHWVKQKPGQGLEWIGYIHPYNDGIKYNEKFKGKATLTSDKSSSTAYMDLSSLTSEDSAVYYCARSWDWYFDVWAAGTTVTVSS
VL: QIVLTQSPAIMSASPGEKVSMTCSASSSVSYMHWYQQKSGTSPKRWIYDTSKLASGVPARFSGSGSGTSYSLTISSMEAEDAATYYCLQWSSNPPTFGGGTKLE
notes: also called anti-PODXL2 antibody ACT36-27-5D1; anti-ACT36-27-5D1 monoclonal antibody
B1: no binding [1]; no binding [2]; no binding [3]. B1: binds [4]; no binding [5].
